Here are results for 11 molecules from patent US20250171542A1 (ADEPT THERAPEUTICS, published 2025).

Where a chain is given by its changes, count along the chain named.

B1: 33E8 (antibody, human IgG1, V domains shown)
VH: QSLEESGGDLVKPGASLTLTCTASGFYFSSGYDMSWVRQAPGKGLEWIASIFTTSGSTWYANWAKGRFTISKTSSTTVTLQMTSLTDADTATYFCTKDGVGSFYMNLWGPGTLVTVSS
VL: LVMTQTPASVEVAVGGTVTIKCQASQTIGSNLAWYQQRPGQPPKLLIYKAFTLASGVSSRFKGSGSGTQFTLTISGVECADAATYYCQQGATRINIDNAFGGGTEVVVK
B2: 56E5 (antibody, human IgG1, V domains shown)
VH: QEQLEESGGGLVQPEGSLTLTCTASGFSFSGDYYMSWVRQAPGKGLEWIASIYTGSLNTYYATWAKGRFTISLTSSTTVTLQMTSLTAADTATYFCARRHKNADYGHFDLWGPGTLVTVSS
VL: YDMTQTPGSVEVAVGGTVTIKCQASQSINDRLAWYQQTPGQPPKLLIYGASTLASGVPSRFKGSGSGTEFTLTISDLECADAATYYCQQGWTVSSLDNAFGGGTEVVAK
B3: 55H3/76D6 (antibody, human IgG1, V domains shown)
VH: B2 VH with A24V, I49V, T59S, H100N
VL: B2 VL with G8A, Q26E, T38K, G49A, K62R, E69D, K109M
B4: 62E6 (antibody, human IgG1, V domains shown)
VH: B2 VH with G10D, Q13K, T59I, H100N
VL: B2 VL with G8A, T38K, G40R, A80V
B5: 57B10 (antibody, human IgG1, V domains shown)
VH: B2 VH with G31D, H100N, Y105W
VL: B2 VL with G8A, N29S, D30T, R31A, T38K, G49A, K62R, E69D, K109M
B6: 33H7 (antibody, human IgG1, V domains shown)
VH: QEQLVESGGGLVQPEGSLTVTCTASGFDLSRYFYMSWVRQAPGKGLEWIASISTGSDITDYASWAKGRFTISKTSSTTVTLQMTTLTAADTAIYFCARWTSGGGGFGLWGPGTLVTVSS
VL: QVLTQTASPVSAAVGGTVTLNCQSSQSIYNNYLSWYQQRAGQPPKLLIYSTATLASGVPSRFKGSGSGTQFTLTISEIQCEDAATYYCQGYYSGYIWTFGGGTEVVVK
B7: 32E2 (antibody, human IgG1, V domains shown)
VH: QEQLEESGGDLVKPEGSLTLTCTASGFSFSSSYYMSWVRQAPGMGLEWIASISGGVTDNAYYASWAKGRFTVSKTSSTTVTLQLTSLTAADTATYFCARDSSSGYFFLLWGPGTLVTVSS
VL: LVMTQTPSSVSAAVGGTVTINCQASQNIYSNLAWYQQKPGQRPKLLIFGASNLRSGVPSRFKGSGSGTEYTLTISDLECADAATYYCQEGYSIGNVDNPFGGGTEVVVK
B8: 74F4 (antibody, human IgG1, V domains shown)
VH: B2 VH with H100N
VL: B2 VL with G8A, T38S, E69D
B9: 57F11 (antibody, human IgG1, V domains shown)
VH: B2 VH with Q3H, S17A, L73I, T74A, M83V, H100T, A103G, H107Y
VL: B2 VL with G8A, T38K, G49A, D97E
B10: 69D10 (antibody, human IgG1, V domains shown)
VH: B2 VH with Y33W, T54S, I71V, H100N
VL: B2 VL with G8A, N29G, D30N, R31A, T38K, G49A, A50T, A80G
B11: 73C8 (antibody, human IgG1, V domains shown)
VH: B2 VH with A24V, I49V, H100N
VL: B2 VL with G8A, T38K, G49A, K62R, E69D, K109M

The target of one assay is T1, human PD-L1 expressed on cell surface (human, UniProt Q9NZQ7 19-290). As to the kind of experiment: cell-based or functional assay.
T1 sequence (Q9NZQ7 19-290 limits assumed): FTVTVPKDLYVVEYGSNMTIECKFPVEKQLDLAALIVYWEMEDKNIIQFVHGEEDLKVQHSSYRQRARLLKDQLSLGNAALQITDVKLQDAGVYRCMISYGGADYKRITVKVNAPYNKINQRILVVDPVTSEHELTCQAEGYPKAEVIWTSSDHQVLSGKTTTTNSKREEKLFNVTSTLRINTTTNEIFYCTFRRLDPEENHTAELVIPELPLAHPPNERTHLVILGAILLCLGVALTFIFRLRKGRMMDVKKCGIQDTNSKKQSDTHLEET
On to B1, for which the “IC50 (nM), Promega PD-1/PD-L1 blockade reporter assay, another assay” value was found to be 0.38 nM.

The target of another assay is T1, human PD-L1 expressed on cell surface. As to the kind of experiment: cell-based or functional assay. This is another data set of the same source.
In the case of B2, the “IC50 (nM), Promega PD-1/PD-L1 blockade reporter assay” value came out at 0.41 nM.

Regarding B3, the “IC50 (nM), Promega PD-1/PD-L1 blockade reporter assay” value is 0.97 nM.

B4: the “IC50 (nM), Promega PD-1/PD-L1 blockade reporter assay” value stood at 0.41 nM.

B5: the “IC50 (nM), Promega PD-1/PD-L1 blockade reporter assay” value stood at 0.47 nM.

Turning to B6, the “IC50 (nM), Promega PD-1/PD-L1 blockade reporter assay” value amounted to 0.52 nM.

The target of another assay is T2, cynomolgus PD-L1-His (Sino Biological, Cat. 90251-C08H) (cynomolgus, UniProt Q9NZQ7 19-238 (human entry)).
T2 construct: Bought protein; also called Cyno PD-L1; Cynomolgus PD-L1 ECD-His; not shown: His tag
T2 sequence (Q9NZQ7 other isoform, or with tags, fused parts or gaps C08H C08H limits assumed): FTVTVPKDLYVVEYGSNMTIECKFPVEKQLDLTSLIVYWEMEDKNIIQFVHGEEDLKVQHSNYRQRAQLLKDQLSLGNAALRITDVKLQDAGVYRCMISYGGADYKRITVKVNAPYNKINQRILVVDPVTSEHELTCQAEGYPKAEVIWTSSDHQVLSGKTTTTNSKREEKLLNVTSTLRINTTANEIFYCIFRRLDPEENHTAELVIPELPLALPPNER
The experiment in a line: BLI (Gator), cynomolgus PD-L1.
For the molecule B1, binding was characterised by a dissociation constant (Kd) of 930 pM; the koff (commonly a measure of how fast the partners let go of each other) was determined as 0.000202 s⁻¹; the kon – broadly, a measure of how fast the partners come together – is 218000 M⁻¹ s⁻¹.

As to B7, binding was put at a Kd of 530 pM, the koff stood at 7e-05 s⁻¹ and the kon is 133000 M⁻¹ s⁻¹.

In the case of B8, the Kd (usually the equilibrium constant for the complex coming apart) was determined as 10 pM, the koff came to 5e-06 s⁻¹ and the kon was 387000 M⁻¹ s⁻¹.

As for B2, the Kd is no more than 30 pM, the koff is no more than 1e-05 s⁻¹ and the kon turned out to be 313000 M⁻¹ s⁻¹.

For the molecule B9, binding was characterised by a dissociation constant (Kd) of 270 pM, the koff worked out at 0.000101 s⁻¹ and the kon turned out to be 373000 M⁻¹ s⁻¹.

The molecule B10 came in with a Kd of 180 pM, a koff of 7.7e-05 s⁻¹ and a kon of 428000 M⁻¹ s⁻¹.

In the case of B11, the Kd is no more than 30 pM, the koff is no more than 1e-05 s⁻¹ and the kon amounted to 344000 M⁻¹ s⁻¹.

Turning to B3, binding was characterised by a dissociation constant (Kd) of 30 pM, the koff came to 1.1e-05 s⁻¹ and the kon was determined as 307000 M⁻¹ s⁻¹.

B4 returned a kon of 313000 M⁻¹ s⁻¹.

The molecule B5 showed a Kd of 30 pM, an off-rate (koff) of 7e-06 s⁻¹ and a kon of 284000 M⁻¹ s⁻¹.

Consider B6, for which the affinity, expressed as Kd, was 230 pM; the koff was found to be 8.1e-05 s⁻¹; the kon was found to be 350000 M⁻¹ s⁻¹.

The next assay deals with T3, human PD-L1-mFc fusion protein (Sino Biological, Cat #10084-H05H) (human, UniProt Q9NZQ7 19-239).
T3 construct: Bought protein; also called human PD-L1 mouse Fc fusion protein; not shown: mouse Fc
T3 sequence (Q9NZQ7 19-239 limits assumed): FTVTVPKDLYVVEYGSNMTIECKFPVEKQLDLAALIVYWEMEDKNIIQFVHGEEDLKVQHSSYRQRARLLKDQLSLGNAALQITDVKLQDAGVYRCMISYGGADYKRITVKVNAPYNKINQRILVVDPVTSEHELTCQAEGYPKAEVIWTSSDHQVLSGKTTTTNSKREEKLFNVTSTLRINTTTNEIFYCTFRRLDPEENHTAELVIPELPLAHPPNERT
The experiment in a line: competition ELISA, coated human PD-L1-mFc, competitor human PD-1-His-hFc-Biotin. As to the method:
Briefly, microplates were precoated with […] of human PD-L1-mFc fusion protein (Sino Biological, Cat #10084-H05H) diluted in 1×PBS (GIBCO) and incubated overnight at 4° C.; Plates were washed four times with 300 μl/well washing buffer (1×PBST, diluted from 20×PBST (Thermo Scientific) with distilled water)) and then blocked with 300 μl/well of blocking buffer (1×PBST/3% BSA) for 2 hours at RT on shaker (100 rpm). […] Plates were washed and added with 100 μl/well TMB substrate for color development at room temperature in dark for up to 10 minutes. After addition of 50 μl/well of stop solution (1N H₂SO₄), plates were read at 450 nm on a plate reader (SpectraMax M5).
In general terms: An ELISA detects its analyte on a solid surface through an enzyme-linked reagent.
Regarding B1, the IC50 (in general, the midpoint of a concentration-inhibition curve) was 3100 pM.

Regarding B7, the IC50 was found to be 7500 pM. Compared with the last molecule, the IC50 is about 2.4-fold higher.

As to B6, the IC50 turned out to be 2100 pM.

The target of another assay is T4, human PD-L1-His (Sino Biological, Cat #10084-H08H) (human, UniProt Q9NZQ7 19-238).
T4 construct: Bought protein; also called human PD-L1 ECD-His; recombinant human PD-L1-His protein; not shown: His tag
T4 sequence (Q9NZQ7 19-238): as the sequence (Q9NZQ7 other isoform, or with tags, fused parts or gaps C08H C08H limits assumed) above, with T33A, S34A, N62S, Q68R, R82Q, L173F, A185T, I192T, L215H counted along it
As to the kind of experiment: BLI (Gator), antibody on HFC probe, human PD-L1-His in solution. As to the method: The affinity of the binding of the exemplary anti-PD-L1 antibodies of the present disclosure was determined. Assay was performed according to the protocol recommended by Gator or Gator Plus (Gator Bio Inc.). Briefly, human PD-L1-His (Sino Biological, Cat #10084-H08H) was serially diluted 4-fold, starting at 4 μg/ml. After three times of regeneration in generation buffer (Gator Bio, Cat #120012) and neutralization of HFC probe (Gator Bio, Cat #160003), 1 μg/ml of antibody to be tested in Q buffer (Gator Bio, Cat #120010) was immobilized onto HFC probe. After a baseline step, probe immobilized with antibody was dipped into antigen solutions. The association and dissociation of antigen from antibody was measured on BLI machine Gator. Affinity was calculated using Gator Bio analysis software.
Table 22 below summarizes the binding affinity to human PD-L1 using Gator.
Turning to B1, the Kd turned out to be 1160 pM, the koff was 0.000418 s⁻¹ and the kon was found to be 361000 M⁻¹ s⁻¹.

With B7, the Kd stood at 310 pM, the koff amounted to 0.000113 s⁻¹ and the kon was 371000 M⁻¹ s⁻¹.

As for B8, binding was put at a Kd of 360 pM, the koff amounted to 0.000238 s⁻¹ and the on-rate (kon) was 648000 M⁻¹ s⁻¹.

For the molecule B2, binding was put at a Kd of 750 pM, the koff was found to be 0.00056 s⁻¹ and the kon worked out at 748000 M⁻¹ s⁻¹.

Turning to B9, the Kd was found to be 310 pM, the koff was found to be 0.000113 s⁻¹ and the association rate constant (kon) was 371000 M⁻¹ s⁻¹.

For B10, the Kd was determined as 9090 pM, the koff turned out to be 0.00653 s⁻¹ and the kon came to 718000 M⁻¹ s⁻¹.

In turn, B11 gave a Kd of 120 pM, a koff of 9.39e-05 s⁻¹ and a kon of 804000 M⁻¹ s⁻¹.

B3: the Kd is 640 pM, the koff stood at 0.000317 s⁻¹ and the kon is 498000 M⁻¹ s⁻¹.

For the molecule B4, the Kd was determined as 430 pM, the koff was 0.000342 s⁻¹ and the kon turned out to be 788000 M⁻¹ s⁻¹.

In turn, B5 returned a Kd of 90 pM, a koff of 7.7e-05 s⁻¹ and a kon of 810000 M⁻¹ s⁻¹.

B6: the Kd is 610 pM, the koff was 0.000329 s⁻¹ and the kon came out at 536000 M⁻¹ s⁻¹.

Another assay concerns the target T4, human PD-L1-His (Sino Biological, Cat …). The experiment in a line: ELISA, coated human PD-L1-His. As for the experimental part:
(§1) Briefly, Maxisorp plates (Nunc) were coated with 100 ul/well of 0.5 μg/ml human PD-L1-His (Sino Biological, Cat #10084-H08H) or cynomolgus PD-L1-His (Sino Biological, Cat. 90251-C08H) protein diluted in 1×PBS (GIBCO) overnight at 4° C. Plates were washed three times with 300 μl/well washing buffer (1×PBST, diluted from 20×PBST (Thermo Scientific) with distilled water)) and then blocked with 300 μl/well of blocking buffer (1×PBST/I % BSA) for 2 hours at RT on shaker (100 rpm). Plates were washed and added with 100 μl/well of testing antibodies, which were serial diluted with assay buffer (PBST/1% BSA). The antibodies were incubated at room temperature for 2 hours on plate shaker at 100 rpm. Plates were washed. One hundred microliter of horseradish peroxidase (HRP) conjugated detection antibody was added into each well and incubated at room temperature for 1 hour on plate shaker at 100 rpm. Plates were washed and added with 100 μl/well TMB substrate for color development at room temperature in dark for up to 10 minutes. After addition of 50 μl/well of stop solution (1N H₂SO₄), plates were read at 450 nm on a plate reader (SpectraMax M5).
(§2) Anti-HEL isotype control (Biolntron) was used as negative control.
As to B1, the EC50 (as a rule, the concentration at which the effect is half-maximal) was 39.9 pM. This lies in the picomolar range.

B7 came in with an EC50 of 106 pM.

For the molecule B8, the half-maximal effective concentration (EC50) amounted to 15.7 pM.

On to B2, for which a half-maximal effect (EC50) was put at 18.4 pM.

Consider B9, for which the EC50 was determined as 21.6 pM.

On to B10, for which the EC50 is 21.5 pM. This EC50 and that of the molecule before are within 1.5-fold of each other.

The molecule B11 had an EC50 of 16 pM.

On to B3, for which the EC50 is 19.9 pM.

B4 showed an EC50 of 24 pM.

As to B5, the EC50 was 18.6 pM.

On to B6, for which a half-maximal response (EC50) required 17.1 pM.

The target in a further assay is T2, cynomolgus PD-L1-His (Sino Biological, …). As to the kind of experiment: ELISA, coated cyno PD-L1-His. As to the method:
as §1, §2
With B1, the EC50 worked out at 41.4 pM. This lies in the picomolar range.

Take B7: the EC50 was 179 pM.

B8 showed an EC50 of 12.5 pM.

B2 registered an EC50 of 7.8 pM.

In the case of B9, the EC50 was 13.8 pM.

B10 gave an EC50 of 17.7 pM.

As to B11, a half-maximal response (EC50) required 12.1 pM.

B3 had an EC50 of 12.6 pM.

Molecule B4 displayed an EC50 of 18.8 pM.

The molecule B5 yielded an EC50 of 7.1 pM. Compared with the last molecule, the EC50 is about 2.6-fold lower.

For the molecule B6, it took 13 pM to reach a half-maximal effect (EC50). Compared with the last molecule, the EC50 is about 1.8-fold higher.
